Target: T1, recombinant cynomolgus monkey (Macaca fascicularis) transferrin receptor 1 (cTfR1) (cynomolgus monkey (Macaca fascicularis), UniProt Q5RDH6 87-760 (Pongo abelii entry), limits assumed)
T1 construct: Recombinant protein; also called cyTfR1; cyno TfR1
T1 chain: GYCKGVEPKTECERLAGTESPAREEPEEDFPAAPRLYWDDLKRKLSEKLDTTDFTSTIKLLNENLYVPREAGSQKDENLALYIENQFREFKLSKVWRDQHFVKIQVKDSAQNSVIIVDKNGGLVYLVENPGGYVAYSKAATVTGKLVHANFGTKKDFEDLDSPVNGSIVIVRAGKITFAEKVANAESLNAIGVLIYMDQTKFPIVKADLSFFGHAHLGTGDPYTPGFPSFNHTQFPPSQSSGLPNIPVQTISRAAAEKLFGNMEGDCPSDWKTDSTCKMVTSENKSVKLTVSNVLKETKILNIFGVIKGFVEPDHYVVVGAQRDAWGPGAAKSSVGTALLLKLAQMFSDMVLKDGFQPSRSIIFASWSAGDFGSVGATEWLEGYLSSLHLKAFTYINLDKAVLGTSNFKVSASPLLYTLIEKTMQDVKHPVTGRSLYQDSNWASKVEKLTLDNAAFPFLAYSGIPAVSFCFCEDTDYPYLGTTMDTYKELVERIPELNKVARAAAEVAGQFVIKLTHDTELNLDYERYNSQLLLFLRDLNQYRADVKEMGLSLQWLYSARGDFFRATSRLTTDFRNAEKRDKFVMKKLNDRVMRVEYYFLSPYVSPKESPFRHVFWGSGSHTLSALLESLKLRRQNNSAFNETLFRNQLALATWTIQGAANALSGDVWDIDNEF
Experiment: Avg KD, antibody alone; table gives no method

B1: 15G11 (control anti-TfR1 antibody) (antibody, V domains shown)
VH: QVQLQQPGAELVKPGASVKLSCKASGYTFTSYWMHWVKQRPGQGLEWIGEINPTNGRTNYIEKFKSKATLTVDKSSSTAYMQLSSLTSEDSAVYYCARGTRAYHYWGQGTSVTVSS
VL: DIQMTQSPASLSVSVGETVTITCRASDNLYSNLAWYQQKQGKSPQLLVYDATNLADGVPSRFSGSGSGTQYSLKINSLQSEDFGTYYCQHFWGTPLTFGAGTKLELK
- Kd: 1 nM
